In patent US20180217151A1:
Each block holds one substance with its values, some of them ahead of it.

How the values were obtained:
[1] = molecular target: recombinant CD62L antigen (not stated (the Fab labels human PBMCs)) (UniProt P14151); assay: SPR (Biacore), recombinant antigen (extracellular domain) immobilized by amine coupling, Fab as analyte, 1:1 binding mass transfer model
[2] = molecular target: CD62L antigen on human PBMCs (human) (UniProt P14151); assay: flow cytometry, human PBMCs, biotinylated Fab 1 µg/mL, SA-APC, after five washing steps; median of control (background) 0.2; enables reversible labeling: yes
Chain of CD62L antigen on human PBMCs (human) (P14151 39-372): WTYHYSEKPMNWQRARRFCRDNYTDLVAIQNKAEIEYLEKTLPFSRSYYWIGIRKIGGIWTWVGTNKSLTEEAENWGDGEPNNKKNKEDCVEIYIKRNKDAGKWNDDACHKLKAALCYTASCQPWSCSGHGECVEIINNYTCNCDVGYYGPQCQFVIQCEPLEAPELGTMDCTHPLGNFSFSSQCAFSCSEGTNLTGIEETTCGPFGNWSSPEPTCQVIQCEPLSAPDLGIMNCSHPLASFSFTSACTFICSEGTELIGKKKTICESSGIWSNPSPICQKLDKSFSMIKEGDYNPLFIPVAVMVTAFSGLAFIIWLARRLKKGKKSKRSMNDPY

[3] = molecular target: CD62L antigen on human PBMCs (human) (UniProt P14151); assay: flow cytometry, human PBMCs, biotinylated Fab 1 µg/mL, SA-APC, after five washing steps; enables reversible labeling: yes
[4] = molecular target: CD62L antigen on human PBMCs (human) (UniProt P14151); assay: flow cytometry, human PBMCs, biotinylated Fab 1 µg/mL, SA-APC, before washing; median of control (background) 0.2
[5] = molecular target: recombinant CD4 antigen (not stated (the Fab labels human PBMCs)) (UniProt P01730); assay: SPR (Biacore), recombinant antigen (extracellular domain) immobilized by amine coupling, Fab as analyte, 1:1 binding mass transfer model
[6] = molecular target: CD4 antigen on human PBMCs (human) (UniProt P01730); assay: flow cytometry, human PBMCs, biotinylated Fab, SA-APC, before washing; gate at APC about 5e1; the same gate in control C prints 0,06%-#
[7] = molecular target: CD4 antigen on human PBMCs (human) (UniProt P01730); assay: flow cytometry on human PBMCs, after 2 mM biotin and one washing step
[8] = molecular target: CD4 antigen on human PBMCs (human) (UniProt P01730); assay: flow cytometry, human PBMCs, biotinylated Fab 1 µg/mL, SA-APC, before washing; median of control (background) 0.3
[9] = molecular target: CD4 antigen on human PBMCs (human) (UniProt P01730); assay: flow cytometry on human PBMCs, Fab multimerized with anti-Biotin-PE, before disruption
[10] = molecular target: CD4 antigen on human PBMCs (human) (UniProt P01730); assay: flow cytometry, human PBMCs, biotinylated Fab 1 µg/mL, SA-APC, after five washing steps; median of control (background) 0.3; enables reversible labeling: yes
[11] = molecular target: CD4 antigen on human PBMCs (human) (UniProt P01730); assay: flow cytometry, human PBMCs, biotinylated Fab 1 µg/mL, SA-APC, after five washing steps; enables reversible labeling: yes
[12] = molecular target: recombinant CD14 antigen (not stated (the Fab labels human PBMCs)) (UniProt P08571); assay: SPR (Biacore), recombinant antigen (extracellular domain) immobilized by amine coupling, Fab as analyte, 1:1 binding mass transfer model
Chain of recombinant CD14 antigen (not stated (the Fab labels human PBMCs)) (P08571 20-352 limits assumed): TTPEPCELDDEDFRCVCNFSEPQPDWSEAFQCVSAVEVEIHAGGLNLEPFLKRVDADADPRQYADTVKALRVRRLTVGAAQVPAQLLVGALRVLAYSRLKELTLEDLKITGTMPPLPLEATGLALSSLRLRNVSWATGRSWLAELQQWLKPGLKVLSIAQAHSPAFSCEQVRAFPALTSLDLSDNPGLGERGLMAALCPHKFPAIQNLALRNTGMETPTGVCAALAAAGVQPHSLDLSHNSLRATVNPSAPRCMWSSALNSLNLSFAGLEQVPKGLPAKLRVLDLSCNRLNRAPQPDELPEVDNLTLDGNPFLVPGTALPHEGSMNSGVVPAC

[13] = molecular target: CD14 antigen on human PBMCs (human) (UniProt P08571); assay: flow cytometry, human PBMCs, biotinylated Fab 1 µg/mL, SA-APC, before washing; median of control (background) 0.25
Chain of CD14 antigen on human PBMCs (human) (P08571 20-345): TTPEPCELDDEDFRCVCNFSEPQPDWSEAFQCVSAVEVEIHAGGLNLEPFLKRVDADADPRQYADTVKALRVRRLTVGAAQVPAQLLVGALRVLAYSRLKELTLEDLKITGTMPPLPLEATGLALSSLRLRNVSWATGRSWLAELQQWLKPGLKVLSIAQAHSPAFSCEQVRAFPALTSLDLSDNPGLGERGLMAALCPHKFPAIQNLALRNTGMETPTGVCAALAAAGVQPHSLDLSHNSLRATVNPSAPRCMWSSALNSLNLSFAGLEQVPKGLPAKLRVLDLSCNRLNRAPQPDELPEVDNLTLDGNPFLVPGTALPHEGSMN

[14] = molecular target: CD14 antigen on human PBMCs (human) (UniProt P08571); assay: flow cytometry, human PBMCs, biotinylated Fab 1 µg/mL, SA-APC, after five washing steps; enables reversible labeling: yes
[15] = molecular target: CD14 antigen on human PBMCs (human) (UniProt P08571); assay: flow cytometry, human PBMCs, biotinylated Fab 1 µg/mL, SA-APC, after five washing steps; median of control (background) 0.25; enables reversible labeling: yes
[16] = molecular target: recombinant CD27 antigen (not stated (the Fab labels human PBMCs)) (UniProt P26842); assay: SPR (Biacore), recombinant antigen (extracellular domain) immobilized by amine coupling, Fab as analyte, 1:1 binding mass transfer model
Chain of recombinant CD27 antigen (not stated (the Fab labels human PBMCs)) (P26842 20-191): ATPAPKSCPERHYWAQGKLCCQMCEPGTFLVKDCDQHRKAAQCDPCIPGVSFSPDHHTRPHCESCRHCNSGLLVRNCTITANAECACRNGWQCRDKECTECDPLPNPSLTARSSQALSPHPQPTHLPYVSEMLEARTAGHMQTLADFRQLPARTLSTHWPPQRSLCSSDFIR

[17] = molecular target: CD27 antigen on human PBMCs (human) (UniProt P26842); assay: flow cytometry, human PBMCs, biotinylated Fab 1 µg/mL, SA-APC, after five washing steps; median of control (background) 0.2; enables reversible labeling: no
Chain of CD27 antigen on human PBMCs (human) (P26842 20-260): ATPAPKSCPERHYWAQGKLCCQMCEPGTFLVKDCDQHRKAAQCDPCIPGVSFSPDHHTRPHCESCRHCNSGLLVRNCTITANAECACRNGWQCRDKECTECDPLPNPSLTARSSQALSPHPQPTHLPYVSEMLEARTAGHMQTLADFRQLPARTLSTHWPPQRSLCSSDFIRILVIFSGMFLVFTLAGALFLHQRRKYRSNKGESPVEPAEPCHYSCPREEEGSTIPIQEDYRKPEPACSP

[18] = molecular target: CD27 antigen on human PBMCs (human) (UniProt P26842); assay: flow cytometry, human PBMCs, biotinylated Fab, SA-APC, before washing; gate above APC about 1
[19] = molecular target: CD27 antigen on human PBMCs (human) (UniProt P26842); assay: flow cytometry, human PBMCs, biotinylated Fab 1 µg/mL, SA-APC, before washing; median of control (background) 0.2
[20] = molecular target: CD27 antigen on human PBMCs (human) (UniProt P26842); assay: flow cytometry, human PBMCs, biotinylated Fab, SA-APC, after five washing steps; same gate above APC about 1
[21] = molecular target: CD27 antigen on human PBMCs (human) (UniProt P26842); assay: flow cytometry, human PBMCs, biotinylated Fab 1 µg/mL, SA-APC, after five washing steps; enables reversible labeling: no

Chain of recombinant CD62L antigen (not stated (the Fab labels human PBMCs)) (P14151 39-332): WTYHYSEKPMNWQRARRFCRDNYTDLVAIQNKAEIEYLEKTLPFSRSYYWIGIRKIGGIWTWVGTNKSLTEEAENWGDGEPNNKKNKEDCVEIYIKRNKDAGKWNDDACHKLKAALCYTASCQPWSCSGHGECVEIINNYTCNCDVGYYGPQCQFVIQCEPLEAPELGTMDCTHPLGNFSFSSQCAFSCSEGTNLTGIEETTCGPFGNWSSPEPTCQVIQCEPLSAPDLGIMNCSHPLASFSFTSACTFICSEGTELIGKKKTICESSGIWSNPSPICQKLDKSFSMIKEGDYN

Kd [1]: 110 nM
koff [1]: 0.068 s⁻¹
kon [1]: 640000 M⁻¹ s⁻¹
median value after Fab removal (ii) [2]: 0.82
% median value of the detected label after Fab removal (before = 100%) [3]: 2.3%
median value (i) [4]: 35
Substance: 145/15 pFab

Kd [5]: 16 nM
koff [5]: 0.016 s⁻¹
kon [5]: 1e+06 M⁻¹ s⁻¹
percent of cells in gate P5, column L [6]: 26.9%
median value of the PE signal after disruption with free biotin and washing [7]: 0.2
median value (i) [8]: 49
median value of the PE signal, labeled [9]: 16.4
median value after Fab removal (ii) [10]: 0.37
% median value of the detected label after Fab removal (before = 100%) [11]: 0.8%
Substance: M-T466 pFab

Kd [12]: 330 nM
koff [12]: 0.24 s⁻¹
kon [12]: 730000 M⁻¹ s⁻¹
median value (i) [13]: 152
% median value of the detected label after Fab removal (before = 100%) [14]: 0.7%
median value after Fab removal (ii) [15]: 1
Substance: TUK4 pFab

Kd [16]: 0.96 nM
koff [16]: 0.00026 s⁻¹
kon [16]: 270000 M⁻¹ s⁻¹
median value after Fab removal (ii) [17]: 6.3
percent of cells in gate P1\P2\P3, column L [18]: 38.2%
median value (i) [19]: 9.9
percent of cells in gate P1\P2\P3, column LR [20]: 40.2%
% median value of the detected label after Fab removal (before = 100%) [21]: 64%
Substance: M-T271 pFab
